In patent US20220177587A1, “METHODS AND USES OF VARIANT CD80 FUSION PROTEINS AND RELATED CONSTRUCTS” (Alpine Immune Sciences, Inc., priority 2018, published 2022):

Experiments:
allogeneic CD4+ T cells = experiment: Mixed Lymphocyte Reaction (MLR), IFN-gamma; type: cell-based, human; settings: Table E32; variant ECD-Fc in MLR assay; culture supernatant
Description: Soluble rCD80.Fc bioactivity was tested in a human Mixed Lymphocyte Reaction (MLR). Human primary dendritic cells (DC) were generated by culturing monocytes isolated from PBMC (BenTech Bio, USA) in vitro for 7 days with 500U/ml rIL-4 (R&D Systems, USA) and 250 U/ml rGM-CSF (R&D Systems, USA) in Ex-Vivo 15 media (Lonza, Switzerland). 10,000 matured DC and 100,000 purified allogeneic CD4+ T cells (BenTech Bio, USA) were co-cultured with variant CD80 Fc fusion proteins and controls in 96 well round bottom plates in 200 μl final volume of Ex-Vivo 15 media. On day 5, IFN-gamma secretion in culture supernatants was analyzed using the Human IFN-gamma Duoset ELISA kit (R&D Systems, USA). Optical density was measured by VMax ELISA Microplate Reader (Molecular Devices, USA) and quantitated against titrated rIFN-gamma standard included in the IFN-gamma Duo-set kit (R&D Systems, USA).

human pan T cells = experiment: Anti-CD3 coimmobilization assay, IFN-gamma; type: cell-based; settings: Table E32; variant ECD-Fc coimmobilized with anti-CD3; culture supernatant
How it was run: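 IFN-gamma in 3-day culture supernatants, quantified by ELISA, reflects costimulation. Human pan T cells or BC3 clone (100,000/well, Ex-Vivo 15) were placed on wells pre-adsorbed overnight with rCD80.Fc variants (1–80 nM) together with anti-CD3 OKT3 (1 nM or 4 nM), unbound protein removed.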

Row | Molecule | MLR IFN-gamma levels (allogeneic CD4+ T cells) [pg/mL] | Coimmobilization with anti CD3 IFN-gamma (human pan T cells) [pg/mL]
1 | S44P/L70Q/A91G/T130A (protein) VIHVTKEVKEVATLSCGHNVSVEELAQTRIYWQKEKKMVLTMMPGDMNIWPEYKNRTIFDITNNLSIVIQALRPSDEGTYECVVLKYEKDGFKREHLAEVTLSVKADFPTPSISDFEIPTSNIRRIICSASGGFPEPHLSWLENGEELNAINTTVSQDPETELYAVSSKLDFNMTTNHSFMCLIKYGHLRVNQTFNWNTTKQEHFPDN | 854 | 142
2 | K36E/I67T/L70Q/A91G/I118V/T1205/T130A/N152T (protein) VIHVTKEVKEVATLSCGHNVSVEELAQTRIYWQKEEKMVLTMMSGDMNIWPEYKNRTIFDITNNLSTVIQALRPSDEGTYECVVLKYEKDGFKREHLAEVTLSVKADFPTPSISDFEVPSSNIRRIICSASGGFPEPHLSWLENGEELNAITTTVSQDPETELYAVSSKLDFNMTTNHSFMCLIKYGHLRVNQTFNWNTTKQEHFPDN | 852 | 53
3 | M38T/L70Q/E77G/A91G/I118V/T120S/T130A/N152T (protein) VIHVTKEVKEVATLSCGHNVSVEELAQTRIYWQKEKKTVLTMMSGDMNIWPEYKNRTIFDITNNLSIVIQALRPSDGGTYECVVLKYEKDGFKREHLAEVTLSVKADFPTPSISDFEVPSSNIRRIICSASGGFPEPHLSWLENGEELNAITTTVSQDPETELYAVSSKLDFNMTTNHSFMCLIKYGHLRVNQTFNWNTTKQEHFPDN | 796 | 119
4 | K37E/F595/L70Q/A91G/T120S/T130A (protein) VIHVTKEVKEVATLSCGHNVSVEELAQTRIYWQKEKEMVLTMMSGDMNIWPEYKNRTISDITNNLSIVIQALRPSDEGTYECVVLKYEKDGFKREHLAEVTLSVKADFPTPSISDFEVPSSNIRRIICSASGGFPEPHLSWLENGEELNAINTTVSQDPETELYAVSSKLDFNMTTNHSFMCLIEYGHLRVNQTFNWNTTKQEHFPDN | 863 | 109
5 | A91G/T120S/I118V/T130A (protein) VIHVTKEVKEVATLSCGHNVSVEELAQTRIYWQKEKKMVLTMMSGDMNIWPEYKNRTIFDITNNLSIVILALRPSDEGTYECVVLKYEKDGFKREHLAEVTLSVKADFPTPSISDFEVPSSNIRRIICSASGGFPEPHLSWLENGEELNAINTTVSQDPETELYAVSSKLDFNMTTNHSFMCLIKYGHLRVNQTFNWNTTKQEHFPDN | 714 | 276
6 | A91G (protein) VIHVTKEVKEVATLSCGHNVSVEELAQTRIYWQKEKKMVLTMMSGDMNIWPEYKNRTIFDITNNLSIVILALRPSDEGTYECVVLKYEKDGFKREHLAEVTLSVKADFPTPSISDFEIPTSNIRRIICSTSGGFPEPHLSWLENGEELNAINTTVSQDPETELYAVSSKLDFNMTTNHSFMCLIKYGHLRVNQTFNWNTTKQEHFPDN | 877 | 220
7 | L70Q/Y87N/A91G/T130A (protein, CD80 v12 ECD) VIHVTKEVKEVATLSCGHNVSVEELAQTRIYWQKEKKMVLTMMSGDMNIWPEYKNRTIFDITNNLSIVIQALRPSDEGTYECVVLKNEKDGFKREHLAEVTLSVKADFPTPSISDFEIPTSNIRRIICSASGGFPEPHLSWLENGEELNAINTTVSQDPETELYAVSSKLDFNMTTNHSFMCLIKYGHLRVNQTFNWNTTKQEHFPDN | 769 | 136
8 | E52G/L70Q/A91G/D107N/I118V/T1205/T130A/K169E (protein) VIHVTKEVKEVATLSCGHNVSVEELAQTRIYWQKEKKMVLTMMSGDMNIWPGYKNRTIFDITNNLSIVIQALRPSDEGTYECVVLKYEKDGFKREHLAEVTLSVKANFPTPSISDFEVPSSNIRRIICSASGGFPEPHLSWLENGEELNAINTTVSQDPETELYAVSSELDFNMTTNHSFMCLIKYGHLRVNQTFNWNTTKQEHFPDN | 874 | 94
9 | A91G/S103P (protein) VIHVTKEVKEVATLSCGHNVSVEELAQTRIYWQKEKKMVLTMMSGDMNIWPEYKNRTIFDITNNLSIVILALRPSDEGTYECVVLKYEKDGFKREHLAEVTLPVKADFPTPSISDFEIPTSNIRRIICSTSGGFPEPHLSWLENGEELNAINTTVSQDPETELYAVSSKLDFNMTTNHSFMCLIKYGHLRVNQTFNWNTTKQEHFPDN | 670 | 124
10 | N63S/L70Q/A91G/S114T/I118V/T120S/T130A (protein, CD80 v133 ECD) VIHVTKEVKEVATLSCGHNVSVEELAQTRIYWQKEKKMVLTMMSGDMNIWPEYKNRTIFDITSNLSIVIQALRPSDEGTYECVVLKYEKDGFKREHLAEVTLSVKADFPTPSITDFEVPSSNIRRIICSASGGFPEPHLSWLENGEELNAINTTVSQDPETELYAVSSKLDFNMTTNHSFMCLIKYGDLRVNQTFNWNTTKQEHFPDN | 705 | 116
11 | D60V/A91G/I118V/T120S/T130A/K169E (protein, CD80 v137 ECD) VIHVTKEVKEVATLSCGHNVSVEELAQTRIYWQKEKKMVLTMMSGDMNIWPEYKNRTIFVITNNLSIVILALRPSDEGTYECVVLKYEKDGFKREHLAEVTLSVKADFPTPSISDFEVPSSNIRRIICSASGGFPEPHLSWLENGEELNAINTTVSQDPETELYAVSSELDFNMTTNHSFMCLIKYGHLRVNQTFNWNTTKQEHFPDN | 744 | 120
12 | L70Q/E81A/A91G/I118V/T120S/I127T/T130A (protein, CD80 v131 ECD) VIHVTKEVKEVATLSCGHNVSVEELAQTRIYWQKEKKMVLTMMSGDMNIWPEYKNRTIFDITNNLSIVIQALRPSDEGTYACVVLKYEKDGFKREHLAEVTLSVKADFPTPSISDFEVPSSNIRRITCSASGGFPEPHLSWLENGEELNAINTTVSQDPETELYAVSSKLDFNMTTNHSFMCLIKYGHLRVNQTFNWNTTKQEHFPDN | 772 | 98
13 | K89E/T130A (protein, CD80 v19 ECD) VIHVTKEVKEVATLSCGHNVSVEELAQTRIYWQKEKKMVLTMMSGDMNIWPEYKNRTIFDITNNLSIVILALRPSDEGTYECVVLKYEEDAFKREHLAEVTLSVKADFPTPSISDFEIPTSNIRRIICSASGGFPEPHLSWLENGEELNAINTTVSQDPETELYAVSSKLDFNMTTNHSFMCLIKYGHLRVNQTFNWNTTKQEHFPDN | 761 | 204
14 | L70R/A91G/I118V/T120S/T130A/T199S (protein, CD80 v130 ECD) VIHVTKEVKEVATLSCGHNVSVEELAQTRIYWQKEKKMVLTMMSGDMNIWPEYKNRTIFDITNNLSIVIRALRPSDEGTYECVVLKYEKDGFKREHLAEVTLSVKADFPTPSISDFEVPSSNIRRIICSASGGFPEPHLSWLENGEELNAINTTVSQDPETELYAVSSKLDFNMTTNHSFMCLIKYGHLRVNQTFNWNSTKQEHFPDN | 702 | 105
15 | K54M/L70Q/A91G/Y164H (protein, CD80 v138 ECD) VIHVTKEVKEVATLSCGHNVSVEELAQTRIYWQKEKKMVLTMMSGDMNIWPEYMNRTIFDITNNLSIVIQALRPSDEGTYECVVLKYEKDGFKREHLAEVTLSVKADFPTPSISDFEIPTSNIRRIICSTSGGFPEPHLSWLENGEELNAINTTVSQDPETELHAVSSKLDFNMTTNHSFMCLIKYGDLRVNQTFNWNTTKQEHFPDN | 685 | 152
16 | L70Q/A91G/E117G/I118V/T120S/T130A (protein, CD80 v128 ECD) VIHVTKEVKEVATLSCGHNVSVEELAQTRIYWQKEKKMVLTMMSGDMNIWPEYKNRTIFDITNNLSIVIQALRPSDEGTYECVVLKYEKDGFKREHLAEVTLSVKADFPTPSISDFGVPSSNIRRIICSASGGFPEPHLSWLENGEELNAINTTVSQDPETELYAVSSKLDFNMTTNHSFMCLIKYGHLRVNQTFNWNTTKQEHFPDN | 736 | 98
17 | T28S/L70Q/A91G/E95K/I118V/T120S/I126V/T130A/K169E (protein, UniProt P33681 35-288, looked up, variant T28S L70Q A91G E95K I118V T120S I126V T130A K169E) T-lymphocyte activation …: VIHVTKEVKEVATLSCGHNVSVEELAQSRIYWQKEKKMVLTMMSGDMNIWPEYKNRTIFDITNNLSIVIQALRPSDEGTYECVVLKYEKDGFKRKHLAEVTLSVKADFPTPSISDFEVPSSNIRRVICSASGGFPEPHLSWLENGEELNAINTTVSQDPETELYAVSSELDFNMTTNHSFMCLIKYGHLRVNQTFNWNTTKQEHFPDNLLPSWAITLISVNGIFVICCLTYCFAPRCRERRRNERLRRESVRPV | 834 | 120
